We go through six molecules from patent US20140087995A1 (published 2014).

For assay [1], the target named is T1, human calcitonin receptor (human, UniProt P30988 25-474).
T1 construct: whole, on cells; Assayed as cell membranes of BHK tk'ts 13 cells stably transfected with the human calcitonin receptor (Assay VII); also called hCTR; hCT
T1 sequence (looked up): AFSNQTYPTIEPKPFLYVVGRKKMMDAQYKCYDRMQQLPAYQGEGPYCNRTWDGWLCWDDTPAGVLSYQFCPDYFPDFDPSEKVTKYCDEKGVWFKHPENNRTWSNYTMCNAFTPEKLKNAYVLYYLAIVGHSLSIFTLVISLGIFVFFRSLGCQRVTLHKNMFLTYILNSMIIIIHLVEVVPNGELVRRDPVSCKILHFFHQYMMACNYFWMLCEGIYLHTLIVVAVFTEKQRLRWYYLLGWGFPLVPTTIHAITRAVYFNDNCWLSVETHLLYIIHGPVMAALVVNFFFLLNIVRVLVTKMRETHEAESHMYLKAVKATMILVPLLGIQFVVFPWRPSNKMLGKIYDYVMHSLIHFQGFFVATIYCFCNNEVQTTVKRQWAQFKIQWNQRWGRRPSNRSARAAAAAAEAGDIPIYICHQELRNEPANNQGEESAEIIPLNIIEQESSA
The experiment in a line: IC50 at hCTR divided by IC50 at hAmylin-R (SPA competition assays V and VII). In outline:
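IC₅₀ values were derived by one-site competition analysis of SPA counts. Cell membranes (35 ng/μL) with SPA beads were incubated with test compounds for 120 min at 25° C in Hepes buffer, pH 7.4, containing CaCl2, MgCl₂, OA and Tween20.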

Assay [2] concerns the target T1, human calcitonin receptor. As to the kind of experiment: SPA competition vs 125I-calcitonin, membranes of BHK cells with human calcitonin receptor (Assay VII). The method in brief: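 BHK hCTR membranes 35 ng/μL + SPA beads 0.05 mg/well; buffer 50 mM Hepes pH 7.4, 1 mM CaCl2, 5 mM MgCl₂, 0.1% OA, 0.02% Tween20. 120 min, 25° C., shaking. Scintillation count; IC50 by one-site binding competition.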

Numbered stars: 1 amine (or outer) side, 2 acyl side, 3 side chain; on linkers, the order of the positions; unused ones are H or OH. Bridge positions count the residues as written; N and C are the ends. Side chains are listed from the residue outwards. Ends that are not written are not given here. * marks the point of attachment. C20 diacid = O=C(O)CCCCCCCCCCCCCCCCCCC(=O)*; γGlu = O=C(O)[C@H](CCC(=O)[*:2])N[*:1]; AEEA = NCCOCCOCC(=O)O

The term IC50 denotes the concentration needed to halve the response being measured.

B1: N^ε1-[2-[2-[2-[[(4S)-4-carboxy-4-(19-carboxynonadecanoylamino)butanoyl]amino]ethoxy]ethoxy]acetyl]-[His14,Arg17,Pro21,Pro27,Pro31]-h-amylin (peptide)
peptide: K([AEEA-γGlu-C20 diacid])CNTATCATQRLAHFLRHSSPNFGAIPSSTPVGSNTY-NH2
modifications: disulfide 2-7; N-terminus assumed
SMILES: CC[C@H](C)[C@H](NC(=O)[C@H](C)NC(=O)CNC(=O)[C@H](Cc1ccccc1)NC(=O)[C@H](CC(N)=O)NC(=O)[C@@H]1CCCN1C(=O)[C@H](CO)NC(=O)[C@H](CO)NC(=O)[C@H](Cc1c[nH]cn1)NC(=O)[C@H](CCCNC(=N)N)NC(=O)[C@H](CC(C)C)NC(=O)[C@H](Cc1ccccc1)NC(=O)[C@H](Cc1c[nH]cn1)NC(=O)[C@H](C)NC(=O)[C@H](CC(C)C)NC(=O)[C@H](CCCNC(=N)N)NC(=O)[C@H](CCC(N)=O)NC(=O)[C@@H](NC(=O)[C@H](C)NC(=O)[C@@H]1CSSC[C@H](NC(=O)[C@@H](N)CCCCNC(=O)COCCOCCNC(=O)CC[C@H](NC(=O)CCCCCCCCCCCCCCCCCCC(=O)O)C(=O)O)C(=O)N[C@@H](CC(N)=O)C(=O)N[C@@H]([C@@H](C)O)C(=O)N[C@@H](C)C(=O)N[C@@H]([C@@H](C)O)C(=O)N1)[C@@H](C)O)C(=O)N1CCC[C@H]1C(=O)N[C@@H](CO)C(=O)N[C@@H](CO)C(=O)N[C@H](C(=O)N1CCC[C@H]1C(=O)N[C@H](C(=O)NCC(=O)N[C@@H](CO)C(=O)N[C@@H](CC(N)=O)C(=O)N[C@H](C(=O)N[C@@H](Cc1ccc(O)cc1)C(N)=O)[C@@H](C)O)C(C)C)[C@@H](C)O
notes: also called compound 61
Take B1: the “Ratio hCT/hAmylin binding” value in assay [1] is 66.7. The IC50 in assay [2] came to 8.11 nM.

B2: N^ε1-[2-[2-[2-[[(4S)-4-carboxy-4-(19-carboxynonadecanoylamino)butanoyl]amino]ethoxy]ethoxy]acetyl]-[Ser14,Arg17,Pro21,Pro27,Pro31]-h-amylin (peptide)
peptide: K([AEEA-γGlu-C20 diacid])CNTATCATQRLASFLRHSSPNFGAIPSSTPVGSNTY-NH2
modifications: disulfide 2-7; N-terminus assumed
SMILES: CC[C@H](C)[C@H](NC(=O)[C@H](C)NC(=O)CNC(=O)[C@H](Cc1ccccc1)NC(=O)[C@H](CC(N)=O)NC(=O)[C@@H]1CCCN1C(=O)[C@H](CO)NC(=O)[C@H](CO)NC(=O)[C@H](Cc1c[nH]cn1)NC(=O)[C@H](CCCNC(=N)N)NC(=O)[C@H](CC(C)C)NC(=O)[C@H](Cc1ccccc1)NC(=O)[C@H](CO)NC(=O)[C@H](C)NC(=O)[C@H](CC(C)C)NC(=O)[C@H](CCCNC(=N)N)NC(=O)[C@H](CCC(N)=O)NC(=O)[C@@H](NC(=O)[C@H](C)NC(=O)[C@@H]1CSSC[C@H](NC(=O)[C@@H](N)CCCCNC(=O)COCCOCCNC(=O)CC[C@H](NC(=O)CCCCCCCCCCCCCCCCCCC(=O)O)C(=O)O)C(=O)N[C@@H](CC(N)=O)C(=O)N[C@@H]([C@@H](C)O)C(=O)N[C@@H](C)C(=O)N[C@@H]([C@@H](C)O)C(=O)N1)[C@@H](C)O)C(=O)N1CCC[C@H]1C(=O)N[C@@H](CO)C(=O)N[C@@H](CO)C(=O)N[C@H](C(=O)N1CCC[C@H]1C(=O)N[C@H](C(=O)NCC(=O)N[C@@H](CO)C(=O)N[C@@H](CC(N)=O)C(=O)N[C@H](C(=O)N[C@@H](Cc1ccc(O)cc1)C(N)=O)[C@@H](C)O)C(C)C)[C@@H](C)O
notes: also called compound 73
Regarding B2, in assay [1], the “Ratio hCT/hAmylin binding” value was 51.7. In assay [2], the half-inhibitory concentration (IC50) was found to be 5.38 nM.

B3: N^ε1-[2-[2-[2-[[(4S)-4-carboxy-4-(19-carboxynonadecanoylamino)butanoyl]amino]ethoxy]ethoxy]acetyl]-[Lys14,Arg17,Pro21,Pro27,Pro31]-h-amylin (peptide)
peptide: K([AEEA-γGlu-C20 diacid])CNTATCATQRLAKFLRHSSPNFGAIPSSTPVGSNTY-NH2
modifications: disulfide 2-7; N-terminus assumed
SMILES: CC[C@H](C)[C@H](NC(=O)[C@H](C)NC(=O)CNC(=O)[C@H](Cc1ccccc1)NC(=O)[C@H](CC(N)=O)NC(=O)[C@@H]1CCCN1C(=O)[C@H](CO)NC(=O)[C@H](CO)NC(=O)[C@H](Cc1c[nH]cn1)NC(=O)[C@H](CCCNC(=N)N)NC(=O)[C@H](CC(C)C)NC(=O)[C@H](Cc1ccccc1)NC(=O)[C@H](CCCCN)NC(=O)[C@H](C)NC(=O)[C@H](CC(C)C)NC(=O)[C@H](CCCNC(=N)N)NC(=O)[C@H](CCC(N)=O)NC(=O)[C@@H](NC(=O)[C@H](C)NC(=O)[C@@H]1CSSC[C@H](NC(=O)[C@@H](N)CCCCNC(=O)COCCOCCNC(=O)CC[C@H](NC(=O)CCCCCCCCCCCCCCCCCCC(=O)O)C(=O)O)C(=O)N[C@@H](CC(N)=O)C(=O)N[C@@H]([C@@H](C)O)C(=O)N[C@@H](C)C(=O)N[C@@H]([C@@H](C)O)C(=O)N1)[C@@H](C)O)C(=O)N1CCC[C@H]1C(=O)N[C@@H](CO)C(=O)N[C@@H](CO)C(=O)N[C@H](C(=O)N1CCC[C@H]1C(=O)N[C@H](C(=O)NCC(=O)N[C@@H](CO)C(=O)N[C@@H](CC(N)=O)C(=O)N[C@H](C(=O)N[C@@H](Cc1ccc(O)cc1)C(N)=O)[C@@H](C)O)C(C)C)[C@@H](C)O
notes: also called compound 74
With B3, the “Ratio hCT/hAmylin binding” value in assay [1] was 101. Besides, in assay [2], the half-maximal inhibitory concentration (IC50) was 79.9 nM.

B4: N^ε1-[2-[2-[2-[[(4S)-4-carboxy-4-(19-carboxynonadecanoylamino)butanoyl]amino]ethoxy]ethoxy]acetyl]-[His14,Arg17,Pro21,Pro27,Pro34]-h-amylin (peptide)
peptide: K([AEEA-γGlu-C20 diacid])CNTATCATQRLAHFLRHSSPNFGAIPSSTNVGPNTY-NH2
modifications: disulfide 2-7; N-terminus assumed
SMILES: CC[C@H](C)[C@H](NC(=O)[C@H](C)NC(=O)CNC(=O)[C@H](Cc1ccccc1)NC(=O)[C@H](CC(N)=O)NC(=O)[C@@H]1CCCN1C(=O)[C@H](CO)NC(=O)[C@H](CO)NC(=O)[C@H](Cc1c[nH]cn1)NC(=O)[C@H](CCCNC(=N)N)NC(=O)[C@H](CC(C)C)NC(=O)[C@H](Cc1ccccc1)NC(=O)[C@H](Cc1c[nH]cn1)NC(=O)[C@H](C)NC(=O)[C@H](CC(C)C)NC(=O)[C@H](CCCNC(=N)N)NC(=O)[C@H](CCC(N)=O)NC(=O)[C@@H](NC(=O)[C@H](C)NC(=O)[C@@H]1CSSC[C@H](NC(=O)[C@@H](N)CCCCNC(=O)COCCOCCNC(=O)CC[C@H](NC(=O)CCCCCCCCCCCCCCCCCCC(=O)O)C(=O)O)C(=O)N[C@@H](CC(N)=O)C(=O)N[C@@H]([C@@H](C)O)C(=O)N[C@@H](C)C(=O)N[C@@H]([C@@H](C)O)C(=O)N1)[C@@H](C)O)C(=O)N1CCC[C@H]1C(=O)N[C@@H](CO)C(=O)N[C@@H](CO)C(=O)N[C@H](C(=O)N[C@@H](CC(N)=O)C(=O)N[C@H](C(=O)NCC(=O)N1CCC[C@H]1C(=O)N[C@@H](CC(N)=O)C(=O)N[C@H](C(=O)N[C@@H](Cc1ccc(O)cc1)C(N)=O)[C@@H](C)O)C(C)C)[C@@H](C)O
notes: also called compound 68
As for B4, the “Ratio hCT/hAmylin binding” value in assay [1] is 64.4. Besides, the IC50 in assay [2] was 5.66 nM.

B5: N^ε1-[2-[2-[2-[[(4S)-4-carboxy-4-(19-carboxynonadecanoylamino)butanoyl]amino]ethoxy]ethoxy]acetyl]-[Thr14,Arg17,Pro21,Pro27,Pro31]-h-amylin (peptide)
peptide: K([AEEA-γGlu-C20 diacid])CNTATCATQRLATFLRHSSPNFGAIPSSTPVGSNTY-NH2
modifications: disulfide 2-7; N-terminus assumed
SMILES: CC[C@H](C)[C@H](NC(=O)[C@H](C)NC(=O)CNC(=O)[C@H](Cc1ccccc1)NC(=O)[C@H](CC(N)=O)NC(=O)[C@@H]1CCCN1C(=O)[C@H](CO)NC(=O)[C@H](CO)NC(=O)[C@H](Cc1c[nH]cn1)NC(=O)[C@H](CCCNC(=N)N)NC(=O)[C@H](CC(C)C)NC(=O)[C@H](Cc1ccccc1)NC(=O)[C@@H](NC(=O)[C@H](C)NC(=O)[C@H](CC(C)C)NC(=O)[C@H](CCCNC(=N)N)NC(=O)[C@H](CCC(N)=O)NC(=O)[C@@H](NC(=O)[C@H](C)NC(=O)[C@@H]1CSSC[C@H](NC(=O)[C@@H](N)CCCCNC(=O)COCCOCCNC(=O)CC[C@H](NC(=O)CCCCCCCCCCCCCCCCCCC(=O)O)C(=O)O)C(=O)N[C@@H](CC(N)=O)C(=O)N[C@@H]([C@@H](C)O)C(=O)N[C@@H](C)C(=O)N[C@@H]([C@@H](C)O)C(=O)N1)[C@@H](C)O)[C@@H](C)O)C(=O)N1CCC[C@H]1C(=O)N[C@@H](CO)C(=O)N[C@@H](CO)C(=O)N[C@H](C(=O)N1CCC[C@H]1C(=O)N[C@H](C(=O)NCC(=O)N[C@@H](CO)C(=O)N[C@@H](CC(N)=O)C(=O)N[C@H](C(=O)N[C@@H](Cc1ccc(O)cc1)C(N)=O)[C@@H](C)O)C(C)C)[C@@H](C)O
notes: also called compound 75
Consider B5, for which, in assay [1], the “Ratio hCT/hAmylin binding” value came to 91.4. The half-inhibitory concentration (IC50) in assay [2] stood at 60.9 nM.

B6: N^ε1-[(4S)-4-carboxy-4-(19-carboxynonadecanoylamino)butanoyl]-[Ala14,Arg17,Pro21,Pro27,His34]-h-amylin (peptide)
peptide: K([γGlu-C20 diacid])CNTATCATQRLAAFLRHSSPNFGAIPSSTNVGHNTY-NH2
modifications: disulfide 2-7; N-terminus assumed
SMILES: CC[C@H](C)[C@H](NC(=O)[C@H](C)NC(=O)CNC(=O)[C@H](Cc1ccccc1)NC(=O)[C@H](CC(N)=O)NC(=O)[C@@H]1CCCN1C(=O)[C@H](CO)NC(=O)[C@H](CO)NC(=O)[C@H](Cc1c[nH]cn1)NC(=O)[C@H](CCCNC(=N)N)NC(=O)[C@H](CC(C)C)NC(=O)[C@H](Cc1ccccc1)NC(=O)[C@H](C)NC(=O)[C@H](C)NC(=O)[C@H](CC(C)C)NC(=O)[C@H](CCCNC(=N)N)NC(=O)[C@H](CCC(N)=O)NC(=O)[C@@H](NC(=O)[C@H](C)NC(=O)[C@@H]1CSSC[C@H](NC(=O)[C@@H](N)CCCCNC(=O)CC[C@H](NC(=O)CCCCCCCCCCCCCCCCCCC(=O)O)C(=O)O)C(=O)N[C@@H](CC(N)=O)C(=O)N[C@@H]([C@@H](C)O)C(=O)N[C@@H](C)C(=O)N[C@@H]([C@@H](C)O)C(=O)N1)[C@@H](C)O)C(=O)N1CCC[C@H]1C(=O)N[C@@H](CO)C(=O)N[C@@H](CO)C(=O)N[C@H](C(=O)N[C@@H](CC(N)=O)C(=O)N[C@H](C(=O)NCC(=O)N[C@@H](Cc1c[nH]cn1)C(=O)N[C@@H](CC(N)=O)C(=O)N[C@H](C(=O)N[C@@H](Cc1ccc(O)cc1)C(N)=O)[C@@H](C)O)C(C)C)[C@@H](C)O
notes: also called compound 93
For the molecule B6, in assay [1], the “Ratio hCT/hAmylin binding” value is 101. Besides, the half-maximal inhibitory concentration (IC50) in assay [2] stood at 17.8 nM.
